Biological target: Arg224 (UniProt position 224, YHALYRYFVEL)
Experiment: electrophysiology

Substance: TASK-2 (K2P5.1) two-pore domain K+ channel (Mus musculus)
- pKa (bath: 135 mM sodium gluconate, 1 mM potassium gluconate, 4 mM KCl, 2 mM CaCl2, 1 mM MgCl2, 105 mM sucrose, pipette: 8 mM KCl, 132 mM potassium gluconate, 1 mM MgCl2, 10 mM EGTA, 1 mM Na3ATP, 0.1 mM GT, 10 mM HEPES/Tris, 0 mV value from a fit across voltages, [K+]i/[K+]o 140/5 mM, intracellular pH 7.4): 8.37
- pKa (bath: 135 mM sodium gluconate, 1 mM potassium gluconate, 4 mM KCl, 2 mM CaCl2, 1 mM MgCl2, 105 mM sucrose, pipette: 8 mM KCl, 132 mM potassium gluconate, 1 mM MgCl2, 10 mM EGTA, 1 mM Na3ATP, 0.1 mM GT, 10 mM HEPES/Tris, membrane potential +60 mV, [K+]i/[K+]o 140/5 mM, intracellular pH 7.4): 8.15
- pKa (bath: 135 mM sodium gluconate, 1 mM potassium gluconate, 4 mM KCl, 2 mM CaCl2, 1 mM MgCl2, 105 mM sucrose, pipette: 8 mM KCl, 132 mM potassium gluconate, 1 mM MgCl2, 10 mM EGTA, 1 mM Na3ATP, 0.1 mM GT, 10 mM HEPES/Tris, membrane potential -120 mV, [K+]i/[K+]o 140/5 mM, intracellular pH 7.4): 8.76
- pKa (not stated, most extracellular Cl- replaced by sulphate, extracellular solution with most Cl- replaced by sulphate, voltage not stated, cited from earlier work): 8.0

Reference: publication PMC3725403
